Experiment [1] concerns the target T1, Chlamydomonas reinhardtii Rubisco holoenzyme (L8S8) (Chlamydomonas reinhardtii, UniProt P00877 3-475).
T1 construct: Purified from C. reinhardtii strain cMJ030 (sucrose gradient, anion exchange); also called purified Rubisco; Cr L8S8 Rubisco
Briefly: SPR, Rubisco immobilized, peptide at 0-4.0 mM in solution (FIG. 4C). From the text:
FIGS. 4A-4C show the EPYC1 fragment that was used to generate the cryoelectron microscopy structure shown in FIGS. 5A-5D, as well as the binding affinity of the EPYC1 fragment for Rubisco. […] The four nearly identical repeats (Repeats 1-4), flanked by short N- and C- termini are indicated. The dark grey boxes represent the ten RBMs on EPYC1. The dark grey bar above the boxes (“EPYC1 peptide”) spans RBM 2 of EPYC1 and represents the 24 amino acid EPYC1 fragment (SEQ ID NO: 51) that was used to generate the cryoelectron microscopy structure of Rubisco bound to the RBM 2 EPYC1 fragment shown in FIGS. 5A-5D. FIGS. 4B-4C provide results of SPR experiments to determine the binding affinity of the 24 amino acid EPYC1 fragment diagramed in FIG. 4A for Rubisco. […] The response difference (Resp. Diff., in RU) is shown on the y-axis.
Surface Plasmon Resonance (SPR) Assay Rubisco was immobilized on a surface and peptides in solution were flowed over the surface. Surface plasmon measurements of binding of individual peptides to Rubisco were assayed (FIG. 3B).
Background: SPR reads the build-up and loss of mass on a sensor chip optically.

In experiment [2] the target is T1, Chlamydomonas reinhardtii Rubisco …. Kind of experiment: SPR, steady-state fit.
The target is the same in experiment [3]. Briefly: SPR; highest binding affinity of all peptides tested.
Experiment [4] addresses T2, S1Cr_M87D/V94D.
T2 construct: variant of m7
T2 chain: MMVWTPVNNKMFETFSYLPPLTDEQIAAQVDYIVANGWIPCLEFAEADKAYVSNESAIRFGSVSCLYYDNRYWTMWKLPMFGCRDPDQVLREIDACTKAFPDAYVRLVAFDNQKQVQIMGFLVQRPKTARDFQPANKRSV
Kind of experiment: yeast two-hybrid, Control SD-L-W, Test SD-L-W-H with 3-AT (concentration not given). From the text:
(§1) FIGS. 9A-9C show the results of a yeast two-hybrid (Y2H) assay to measure the interaction between EPYC1 and Rubisco SSU variants. […] The images shown were taken following three days of cell growth. The Rubisco SSU residues that form salt bridges with EPYC1 residues are bolded (D23, E24, and R91) and the residues that form the hydrophobic pocket with EPYC1 residues are bolded and italicized (M87 and V94). The “Control” images were taken from cells grown for three days on SD-L-W media and the “Test” images were taken from cells grown for three days on SD-L-W-H with 3-AT. Growth of yeast cells expressing the indicated EPYC1 and Rubisco SSU variants was measured after three days on SD-L-W-H with varying 3-AT concentrations. The highest concentration of 3-AT (0, 1, 2.5, 5, 10, and 20 mM) permissive for the growth of each EPYC1 and Rubisco SSU variant combination is shown, as indicated in the “Key” on the right.
Mutagenesis of EPYC1, Mutagenesis of Rubisco, Yeast Two-hybrid, Peptide Arrays and SPR Assays To determine the importance of individual EPYC1 residues for binding to Rubisco, the impact on Rubisco binding of every possible single amino acid substitution for EPYC1 RBM 2 was determined (FIG. 8). […]

The target in experiment [5] is Chlamydomonas reinhardtii Rubisco small subunit 1 (Chlamydomonas reinhardtii, UniProt P00873 46-185). Kind of experiment: cell-based or functional assay.
The target of experiment [6] is S1Cr_V94D (Chlamydomonas reinhardtii). Briefly: cell-based or functional assay.
The target in experiment [7] is S1Cr_M87D (Chlamydomonas reinhardtii). Briefly: cell-based or functional assay.
Experiment [8] has as its target T3, S1Cr_D23A+E24A+R91A.
T3 construct: variant of m7
T3 chain: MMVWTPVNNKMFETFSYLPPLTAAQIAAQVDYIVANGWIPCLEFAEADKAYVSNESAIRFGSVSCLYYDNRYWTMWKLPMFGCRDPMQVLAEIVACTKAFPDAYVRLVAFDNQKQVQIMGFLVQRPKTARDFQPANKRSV
Kind of experiment: yeast two-hybrid, EPYC1 as BD and SSU variant as AD.
Text: as §1
(§2) Mutagenesis of EPYC1, Mutagenesis of Rubisco, Yeast Two-hybrid, Peptide Arrays and SPR Assays To determine the importance of individual EPYC1 residues for binding to Rubisco, the impact on Rubisco binding of every possible single amino acid substitution for EPYC1 RBM 2 was determined (FIG. 8). To determine the importance of individual Rubisco residues for binding to EPYC1, targeted mutations of the amino acids identified from atomic modeling were tested in a yeast two-hybrid assay as in van Nues and Beggs (Genetics 157: 1451-1467, 2000). Peptide arrays and SPR assays were performed as in Example 1.

Experiment [9] deals with T4, S1Cr_D23A.
T4 construct: variant of m7
T4 chain: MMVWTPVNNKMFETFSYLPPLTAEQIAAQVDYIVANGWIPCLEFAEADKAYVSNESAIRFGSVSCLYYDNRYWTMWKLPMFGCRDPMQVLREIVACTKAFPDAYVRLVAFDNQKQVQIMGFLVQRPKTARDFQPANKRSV
Described as above.
Text: as §1, §2

In experiment [10] the target is T5, S1Cr_D23A+E24A.
T5 construct: variant of m7
T5 chain: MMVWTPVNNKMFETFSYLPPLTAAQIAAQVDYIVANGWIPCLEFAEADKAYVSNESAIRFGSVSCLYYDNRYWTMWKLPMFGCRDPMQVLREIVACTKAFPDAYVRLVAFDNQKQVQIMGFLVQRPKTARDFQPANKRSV
Described as above.
Text: as §1, §2

Experimental findings from patent publication US20220275390A1 (TRUSTEES OF PRINCETON UNIVERSITY, published 2022) are described below.

B1: 24 amino acid EPYC1 fragment spanning RBM 2 (peptide)
peptide: TNRVSPTRSVLPANWRQELESLRN
notes: also called EPYC1 peptide; RBM 2 EPYC1 fragment
As to B1, the dissociation constant (Kd) in experiment [1] was 3.09 mM; in experiment [3], 3 mM. This molecule gave a Ka in [2] of 324 M⁻¹.

B2: Chlamydomonas reinhardtii Essential Pyrenoid Component 1 (EPYC1) (other)
chain: MATISSMRVGAASRVVVSGRVKTVKVAARGSWRESSTATVQASRASSATNRVSPTRSVLPANWRQELESLRNGNGSSSAASSAPAPARSSSASWRDAAPASSAPARSSSASKKAVTPSRSALPSNWKQELESLRSSSPAPASSAPAPARSSSASWRDAAPASSAPARSSSSKKAVTPSRSALPSNWKQELESLRSSSPAPASSAPAPARSSSASWRDAAPASSAPARSSSASKKAVTPSRSALPSNWKQELESLRSNSPAPASSAPAPARSSSASWRDAPASSSSSSADKAGTNPWTGKSKPEIKRTALPADWRKGL
notes: also called WT EPYC1
Regarding B2, the binding result in experiment [4], in experiment [8], in experiment [9] and in experiment [10] was “no binding” throughout. In addition, the “highest 3-AT concentration permissive for growth (Y2H), box pattern read against the printed key” value in experiment [5] is 20 mM 3-AT; in experiment [6], 0 mM 3-AT; in [7], 0 mM 3-AT.

A word on the Kd: it is the constant that tells how readily two partners part at equilibrium.
